Reference: IntAct's records for PubMed 22522702

B1: ADP-ribosylation factor 6 (Mus musculus), P62331 (parent)
chain: MGKVLSKIFGNKEMRILMLGLDAAGKTTILYKLKLGQSVTTIPTVGFNVETVTYKNVKFNVWDVGGQDKIRPLWRHYYTGTQGLIFVVDCADRDRIDEARQELHRIINDREMRDAIILIFANKQDLPDAMKPHEIQEKLGLTRIRDRNWYVQPSCATSGDGLYEGLTWLTSNYKS
partner: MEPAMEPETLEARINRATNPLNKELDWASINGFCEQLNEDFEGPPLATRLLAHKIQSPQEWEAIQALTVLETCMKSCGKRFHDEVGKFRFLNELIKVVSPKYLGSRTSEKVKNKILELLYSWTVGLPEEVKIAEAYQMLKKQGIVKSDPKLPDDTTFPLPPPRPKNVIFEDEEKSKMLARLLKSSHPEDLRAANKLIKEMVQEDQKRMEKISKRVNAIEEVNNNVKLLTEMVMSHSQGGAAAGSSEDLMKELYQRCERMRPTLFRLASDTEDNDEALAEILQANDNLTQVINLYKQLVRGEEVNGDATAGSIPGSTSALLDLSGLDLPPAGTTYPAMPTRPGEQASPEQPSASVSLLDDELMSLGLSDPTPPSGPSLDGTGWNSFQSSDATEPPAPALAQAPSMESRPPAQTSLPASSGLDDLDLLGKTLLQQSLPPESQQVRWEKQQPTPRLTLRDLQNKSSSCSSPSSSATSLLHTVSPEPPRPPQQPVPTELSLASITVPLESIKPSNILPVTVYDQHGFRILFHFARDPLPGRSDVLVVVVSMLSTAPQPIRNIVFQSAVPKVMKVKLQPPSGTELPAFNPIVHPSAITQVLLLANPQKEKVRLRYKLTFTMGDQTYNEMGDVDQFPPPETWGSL
B2: ADP-ribosylation factor 6 (Mus musculus), P62331 (parent)
chain: B1 chain
partner: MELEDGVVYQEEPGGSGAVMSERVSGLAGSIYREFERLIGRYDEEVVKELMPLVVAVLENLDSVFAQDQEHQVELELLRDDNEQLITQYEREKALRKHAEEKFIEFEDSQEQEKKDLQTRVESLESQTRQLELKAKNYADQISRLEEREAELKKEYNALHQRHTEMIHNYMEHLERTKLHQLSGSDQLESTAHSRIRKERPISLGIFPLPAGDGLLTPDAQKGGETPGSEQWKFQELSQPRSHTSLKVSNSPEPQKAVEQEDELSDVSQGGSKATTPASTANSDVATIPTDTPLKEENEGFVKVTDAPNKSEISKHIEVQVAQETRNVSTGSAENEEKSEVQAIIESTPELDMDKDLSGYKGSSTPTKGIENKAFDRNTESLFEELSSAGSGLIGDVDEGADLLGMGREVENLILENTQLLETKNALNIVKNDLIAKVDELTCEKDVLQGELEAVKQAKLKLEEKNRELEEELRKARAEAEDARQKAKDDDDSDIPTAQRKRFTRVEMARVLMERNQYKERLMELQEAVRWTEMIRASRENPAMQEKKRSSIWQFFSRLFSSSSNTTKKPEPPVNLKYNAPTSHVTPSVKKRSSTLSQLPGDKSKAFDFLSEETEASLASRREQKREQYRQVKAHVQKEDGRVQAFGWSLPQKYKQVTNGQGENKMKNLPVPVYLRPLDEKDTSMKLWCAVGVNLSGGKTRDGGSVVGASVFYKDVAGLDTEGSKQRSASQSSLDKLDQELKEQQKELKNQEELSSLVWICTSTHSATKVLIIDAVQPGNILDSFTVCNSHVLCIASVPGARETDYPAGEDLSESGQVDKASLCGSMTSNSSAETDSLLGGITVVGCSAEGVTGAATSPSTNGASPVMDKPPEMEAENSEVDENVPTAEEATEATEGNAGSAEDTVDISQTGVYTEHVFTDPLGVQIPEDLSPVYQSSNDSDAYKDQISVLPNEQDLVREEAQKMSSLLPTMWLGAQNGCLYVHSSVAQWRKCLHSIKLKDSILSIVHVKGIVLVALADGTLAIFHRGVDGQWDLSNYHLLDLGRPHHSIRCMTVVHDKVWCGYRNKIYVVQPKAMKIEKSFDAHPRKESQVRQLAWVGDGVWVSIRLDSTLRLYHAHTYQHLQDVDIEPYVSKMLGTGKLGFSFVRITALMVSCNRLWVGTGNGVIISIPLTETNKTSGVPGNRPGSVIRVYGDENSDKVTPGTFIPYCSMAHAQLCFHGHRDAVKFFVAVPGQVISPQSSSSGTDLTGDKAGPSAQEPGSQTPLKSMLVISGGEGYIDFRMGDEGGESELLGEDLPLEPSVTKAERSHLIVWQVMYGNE
B3: ADP-ribosylation factor 6 (Mus musculus), P62331 (parent)
chain: B1 chain
partner: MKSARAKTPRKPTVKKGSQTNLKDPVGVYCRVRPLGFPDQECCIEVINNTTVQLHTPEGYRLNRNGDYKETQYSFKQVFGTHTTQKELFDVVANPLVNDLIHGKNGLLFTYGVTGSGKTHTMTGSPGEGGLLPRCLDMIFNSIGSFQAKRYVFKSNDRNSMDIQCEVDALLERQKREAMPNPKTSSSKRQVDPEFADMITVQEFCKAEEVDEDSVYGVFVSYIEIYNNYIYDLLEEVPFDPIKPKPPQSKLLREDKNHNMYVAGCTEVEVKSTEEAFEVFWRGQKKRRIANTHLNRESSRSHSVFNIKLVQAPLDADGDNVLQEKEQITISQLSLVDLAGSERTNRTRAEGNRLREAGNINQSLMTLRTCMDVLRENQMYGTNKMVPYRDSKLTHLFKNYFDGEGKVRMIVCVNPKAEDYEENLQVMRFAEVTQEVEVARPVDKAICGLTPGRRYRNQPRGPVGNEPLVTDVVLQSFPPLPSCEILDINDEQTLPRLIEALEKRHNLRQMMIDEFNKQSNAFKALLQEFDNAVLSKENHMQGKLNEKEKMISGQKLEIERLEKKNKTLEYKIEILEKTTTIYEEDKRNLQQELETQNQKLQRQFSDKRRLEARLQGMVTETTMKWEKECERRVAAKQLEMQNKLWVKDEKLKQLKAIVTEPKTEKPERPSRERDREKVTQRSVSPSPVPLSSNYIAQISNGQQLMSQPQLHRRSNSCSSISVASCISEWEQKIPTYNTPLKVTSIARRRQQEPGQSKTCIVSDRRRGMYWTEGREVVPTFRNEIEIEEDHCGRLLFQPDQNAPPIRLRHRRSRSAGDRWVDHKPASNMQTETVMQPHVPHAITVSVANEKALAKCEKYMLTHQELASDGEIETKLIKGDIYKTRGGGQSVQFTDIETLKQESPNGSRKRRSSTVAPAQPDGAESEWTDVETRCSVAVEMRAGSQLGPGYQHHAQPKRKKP
B4: ADP-ribosylation factor 6 (Mus musculus), P62331 (parent)
chain: B1 chain
partner: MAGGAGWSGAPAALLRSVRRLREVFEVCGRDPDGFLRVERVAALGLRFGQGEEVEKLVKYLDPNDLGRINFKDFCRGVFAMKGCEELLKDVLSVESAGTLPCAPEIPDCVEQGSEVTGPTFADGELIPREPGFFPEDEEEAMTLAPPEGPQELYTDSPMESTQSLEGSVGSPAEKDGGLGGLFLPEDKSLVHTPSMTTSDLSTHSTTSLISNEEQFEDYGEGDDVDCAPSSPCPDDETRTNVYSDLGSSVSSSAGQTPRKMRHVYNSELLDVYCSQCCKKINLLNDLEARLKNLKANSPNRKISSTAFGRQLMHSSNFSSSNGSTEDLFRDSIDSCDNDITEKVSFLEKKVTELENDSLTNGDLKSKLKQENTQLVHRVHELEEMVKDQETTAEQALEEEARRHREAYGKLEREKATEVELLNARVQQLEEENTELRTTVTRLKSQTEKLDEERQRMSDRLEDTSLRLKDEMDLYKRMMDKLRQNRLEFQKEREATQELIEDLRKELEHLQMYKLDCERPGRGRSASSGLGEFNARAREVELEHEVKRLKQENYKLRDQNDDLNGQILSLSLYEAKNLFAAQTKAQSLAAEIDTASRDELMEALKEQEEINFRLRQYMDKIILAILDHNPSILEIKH

Variants of: B1
Settings: with gga1_human GGA1, Q9UJY5

Row | effect of a mutation on the interaction | Variant
1 | disrupting interaction | Q67L
2 | disrupting interaction | Y77A

Variants of: B1
Settings: with gga1_human GGA1, Q9UJY5
Remark: another data set of the same source

Row | effect of a mutation on the interaction | Variant
3 | disrupting interaction | H76A

Variants of: B2
Settings: with jip4_human SPAG9, O60271

Row | effect of a mutation on the interaction | Variant
4 | disrupting interaction | Y77A
5 | disrupting interaction | Q67L

Variants of: B2
Settings: with jip4_human SPAG9, O60271
Remark: another data set of the same source

Row | effect of a mutation on the interaction | Variant
6 | disrupting interaction | H76A

Variants of: B3
Settings: with kif23_human KIF23, Q02241

Row | effect of a mutation on the interaction | Variant
7 | increasing interaction | Q67L

Variants of: B3
Settings: with kif23_human KIF23, Q02241
Remark: another data set of the same source

Row | effect of a mutation on the interaction | Variant
8 | disrupting interaction | Q67L
9 | disrupting interaction | Y77A

Variants of: B3
Settings: with kif23_human KIF23, Q02241
Remark: another data set of the same source

Row | effect of a mutation on the interaction | Variant
10 | decreasing interaction | Q67L
11 | decreasing interaction | H76A

Variants of: B3
Settings: with kif23_human KIF23, Q02241
Remark: another data set of the same source

Row | effect of a mutation on the interaction | Variant
12 | decreasing interaction | T27N

Variants of: B4
Settings: with rfip4_human RAB11FIP4, Q86YS3

Row | effect of a mutation on the interaction | Variant
13 | disrupting interaction | Y77A

Variants of: B4
Settings: with rfip4_human RAB11FIP4, Q86YS3
Remark: another data set of the same source

Row | effect of a mutation on the interaction | Variant
14 | disrupting interaction | H76A
15 | disrupting interaction | Q67L
